Results taken from patent US20220267453A1 (SAITAMA MEDICAL UNIVERSITY, published 2022).
Residue numbers refer to the chain shown, from its start.

What was measured:
[1] = biological target: T1, human ALK2(WT)-V5-His expressed in HEK293A cells (human, UniProt Q04771 21-509); assay: conclusion from BMP-specific luciferase reporter assay in transfected HEK293A cells
T1 construct: Full-length receptor overexpressed by transient transfection; also called pcDEF3/human ALK2(WT)-V5-His; human ALK2(WT)-VS-His; not shown: V5-His tag of the pcDEF3 construct
T1 sequence: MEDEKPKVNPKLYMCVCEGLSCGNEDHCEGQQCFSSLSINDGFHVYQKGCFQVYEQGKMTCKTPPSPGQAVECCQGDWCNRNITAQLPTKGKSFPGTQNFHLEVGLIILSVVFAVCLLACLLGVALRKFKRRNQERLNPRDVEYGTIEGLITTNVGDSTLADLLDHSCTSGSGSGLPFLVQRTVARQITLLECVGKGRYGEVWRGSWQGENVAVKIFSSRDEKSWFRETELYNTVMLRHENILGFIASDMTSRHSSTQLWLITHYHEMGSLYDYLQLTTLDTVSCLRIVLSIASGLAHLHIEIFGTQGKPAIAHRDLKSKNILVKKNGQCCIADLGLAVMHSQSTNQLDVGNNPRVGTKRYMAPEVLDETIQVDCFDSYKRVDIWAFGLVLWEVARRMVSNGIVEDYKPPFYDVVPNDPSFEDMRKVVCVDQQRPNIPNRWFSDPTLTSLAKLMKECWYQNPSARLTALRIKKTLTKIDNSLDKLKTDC

[2] = biological target: T2, mouse ALK2(WT)-V5-His expressed in HEK293A cells (mouse, UniProt P37172 21-509); assay: as above
T2 construct: Full-length receptor overexpressed by transient transfection; also called pcDEF3/mouse ALK2(WT)-V5-His; not shown: V5-His tag of the pcDEF3 construct
T2 sequence: T1 sequence with M1V, P10Q, L121I, D162E, P310S

[3] = biological target: T3, rat ALK2(WT)-V5-His expressed in HEK293A cells (rat, UniProt P80201 21-509); assay: as above
T3 construct: the end 509 for rat is meant as the end of the entry; also called rat wild-type ALK2; pcDEF3/rat ALK2(WT)-V5-His; not shown: V5-His tag of the pcDEF3 construct
T3 sequence: T1 sequence with K5E, I39V, H44R, I83V, Q86R, T97S, L118F, L121I, D162E, P310S

[4] = biological target: T4, ALK2 expressed in mice (C57BL/6 mouse newborn organs, tissue sections) (mouse, UniProt P37172 21-509); assay: immunohistological staining of frozen sections of mouse newborns; 10 µg/ml primary antibody
T4 construct: Endogenous protein in paraformaldehyde-fixed frozen or paraffin sections of mouse newborns; not a purified protein; also called mouse ALK2 (endogenous)
T4 sequence: T1 sequence with M1V, P10Q, L121I, D162E, P310S
Experimental: C57BL/6 mouse newborns were each fixed in a 4% paraformaldehyde-phosphate buffer solution for 2 days and then freeze-embedded in O.C.T Compound (manufactured by Sakura Finetek Japan Co., Ltd.), and frozen sections were prepared with a thickness of 5 μm using a cryostat (manufactured by Leica Biosystems Nussloch GmbH, Cat. #CM3050S). The sections were washed with PBS three time and reacted with an endogenous enzyme activity blocking solution (manufactured by Vector Laboratories, Inc., Cat. #SP-6000) for 10 minutes. […] On the following day, the sections were washed with PBS-T three times and reacted with HRP-conjugated anti-rat IgG antibody ImmPRESS Reagent (manufactured by Vector Laboratories, Inc., Cat. #MP-7444) as a secondary antibody for 30 minutes at 37° C. Then, the sections were washed with PBS-T three times, and DAB color development (manufactured by Vector Laboratories, Inc., Cat. #SK-4100) was performed. After washing with distilled water, the sections were counter-stained with hematoxylin, mounted on a glass cover according to a standard method, and observed under BZ-9000 (manufactured by Keyence Corp.).

[5] = biological target: T5, Human ALK2-His (Cat. #10227-H088) from Sino Biological Inc. (human, UniProt Q04771 21-123); assay: ELISA of hybridoma culture supernatant on antigen immobilized at 1 µg/ml (selection of hybridomas)
T5 construct: Bought recombinant protein; also called the antigen; not shown: His tag
T5 sequence: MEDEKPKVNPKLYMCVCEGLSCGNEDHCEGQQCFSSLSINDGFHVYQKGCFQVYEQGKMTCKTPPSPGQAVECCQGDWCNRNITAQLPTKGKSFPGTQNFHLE
Experimental: One week after the cell fusion, using each culture supernatant, clones recognizing human ALK2-His used as the antigen were selected by the enzyme-linked immunosorbent assay (ELISA), and clones recognizing human ALK1-His (Sino Biological Inc.) were excluded. ELISA was performed as follows.
First, the antigen diluted to 1 μg/ml with PBS was immobilized onto a 96-well ELISA plate (NUNC, Cat. #442404) for 2 hours at room temperature or overnight at 4° C. The immobilized solution was removed, and the plate was blocked with a 0.5% skim milk solution dissolved in PBS for 30 minutes at room temperature. Next, the above-described culture supernatant of hybridomas was added, and the plate was left for 1 hour at room temperature. After the plate was washed, an ALP-labeled anti-rat IgG antibody (SAB, Inc.) diluted with a 0.5% skim milk solution to 1:2500 was added, and the plate was further left for 1 hour at room temperature. After the plate was washed, a phenyl phosphate substrate was reacted at room temperature, and then absorbance at a wavelength of 492 nm was measured.

[6] = biological target: T6, human ALK2-EGFP expressed in HEK293A cells (human, UniProt Q04771 21-509); assay: conclusion from flow cytometry competition with labeled A2-27D on HEK293A cells expressing human ALK2-EGFP
T6 construct: also called pcDEF3/human ALK2-EGFP; not shown: EGFP fused to ALK2
T6 sequence: T1 sequence
Experimental: In the same manner as in Example 3, HEK293A cells were transiently transfected with pcDEF3/human ALK2-EGFP using Lipofectamine 2000 (manufactured by Thermo Fisher Scientific Inc.). After 2.5 hours, the medium was replaced with fresh 10% FBS-containing DMEM medium, and the cells were cultured overnight. On the following day, […] each of the cell suspensions adjusted to 1×10⁶ cells/mL was dispensed into a 1.5-mL microfuge and centrifuged at 500 g for 5 minutes, and then the supernatant was removed. To the cells, 100 μL of a mixed solution of Alexa fluor 647-labeled A2-27D diluted to 1 μg/mL and 10 μg/mL purified IgG was added, and the cells were left for 30 minutes at 4° C. After the cells were washed with PBS three times, fluorescence was detected by a flow cytometer (BD Accuri C6; manufactured by BD Biosciences). The intensity of EGFP expressed by the cells and the fluorescence intensity of stained Alexa flour 647 were plotted.

Measured: binding result

B1: rat anti-human ALK2 monoclonal antibody produced by the hybridoma #200 (antibody, V domains shown)
VH: QVKLLQSGAALVKPGDSIRMSCKASGYTFTDYIIHWVKQSHGKSLEWIGYINPYSGGTNYNEKFKSKATLTVDKSSSTAYMEFCRLTSEDSAIYYCVRRGHDGTGFDYWGQGVMVTVSS
VL: DVVMTQTPVSLPVSLGGQASISCRSSQSLVHSNGETYLHWYLQKPGQSPQLLIYRVSNRFSGVPDRFSGSGSGTDFTLKLSRVEPEDLGDYYCLQSTHLPLTFGSGTKLEIKR
notes: Rat monoclonal antibody from a hybridoma; also called clone #200; ALK2_#200
binds: [1] | [2] | [3] | [4] | [5] | [6]

B2: rat anti-human ALK2 monoclonal antibody produced by the hybridoma #109 (antibody, V domains shown)
VH: EVQLVESGGDLVQPGRSMKLSCAASGFTFSNYGMAWVRQAPTKGLEWVATISYDGSGTYYRDSVEGRFTISRDNAKITLYLQMNSLRSEDTATYYCTRHGYSRVPYFDYWGQGVMVTVSS
VL: NIVLTQSPATLSVTPGESVSLSCRASQSISTNIHWYQQKSNESPRLLIKYASQSISGIPSRFSGSGSGTDFTLTINRVESEDFSIYYCQQSYSSQLTFGSGTKLEIKR
notes: Rat monoclonal antibody from a hybridoma
binds: [5]
